Residue numbers refer to the chain shown, from its start.
Key:
[1] = target: T1, recombinant mature human GDF-15 protein derived from expression in E. coli (Homo sapiens, UniProt Q99988); assay: Surface plasmon resonance binding to recombinant GDF-15 derived from E. coli expression; settings: SPR
T1 construct: recombinant mature human GDF-15 protein was immobilized on flow cells 1 and 2; made in house; host or cells: E. coli
T1 sequence (Q99988 195-308): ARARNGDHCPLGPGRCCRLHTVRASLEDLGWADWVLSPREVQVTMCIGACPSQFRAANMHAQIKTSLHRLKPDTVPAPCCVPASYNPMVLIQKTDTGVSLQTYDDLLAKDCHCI
Excerpt: For preparing the biosensors recombinant mature human GDF-15 protein was immobilized on flow cells 1 and 2. On one flow cell recombinant GDF-15 derived from Baculvirus-transfected insect cells (HighFive insect cells) and on the other recombinant protein derived from expression in E. coli was used. The GLC sensor chip was activated using Sulfo-NHS (N-Hydroxysulfosuccinimide) and EDC (1-Ethyl-3-[3-dimethylaminopropyl]carbodiimide hydrochloride) (Bio-Rad® ProteOn™ Amine Coupling Kit) according to the manufacturer's recommendation, the sensor surface was subsequently loaded with the proteins up to a density of about 600RU (1Ru=1 pg mm^−2). The non-reacted coupling groups were then quenched by perfusion with 1M ethanolamine pH 8.5 and the biosensor was equilibrated by perfusing the chip with running buffer ([…], 150 mM NaCl, 3.4 mM EDTA, 0.005% Tween® 20, pH 7.4, referred to as HBS150). […] The resulting sensogram was analyzed using the software ProteOn Manager version 3.0. […] For the association rate constant a value of 5.4±0.06×10^5 M^−1s^−1 (kon) and for the dissociation rate constant a value of 4.3±0.03×10^−4 s^−1 (koff) could be determined (values are for the interaction of anti-human GDF-15 mAb-B1-23 with GDF-15 derived from insect cell expression).

human Interleukin-5 = human Interleukin-5 (Homo sapiens, UniProt P05113); assay: Surface plasmon resonance control flow cell with human Interleukin-5; format: binding; settings: SPR, same coupling density
[2] = tested on: GDF-15 mediated downregulation of NKG2D on NK cells; assay: NKG2D surface expression on NK cells after GDF-15 treatment (flow cytometry); format: cell-based; settings: 72 hours incubation
Procedure: FIG. 1: NKG2D Expression on NK Cells after Treatment with or without GDF-15. The cell surface expression of NKG2D was determined on NK cells after treatment with the indicated cytokines in the presence or absence of the anti-GDF-15 antibody mAb B1-23.
a) The NKG2D (Natural Killer Group 2D) receptor, which is expressed on NK cells and CD8+ T cells, is known to play an important role in the immune surveillance against tumors. Transformed as well as viral infected cells express ligands, which bind to the NKG2D receptor, thereby activating the cytotoxic effector functions of the described immune cells. In that way transformed cells can be detected and eliminated by the immune system.
After 72 hours incubation the immune cells were stained with the following FACS-antibodies: anti CD3, anti CD56, anti-NKG2D. Using this antibody combination, the experiment focused on NK cells and their NKG2D surface expression. The low NKG2D level on immune cells led to an impaired tumor/target cell lysis. The GDF-15 mediated downregulation of NKG2D was prevented by mAb B1-23.

[3] = tested on: GDF-15 mediated AKT-phosphorylation in ovarian cancer cell line SK-OV-3; assay: Akt phosphorylation in SK-OV-3 cells (Western Blot); format: cell-based; settings: 2 μg antibody preincubated 5 minutes with 10 ng/ml GDF-15 at 37° C.
Procedure: FIG. 2: Akt Phosphorylation in the Ovarian Carcinoma Cell Line SK-OV-3. In order to quantify the Western Blot for the ovarian carcinoma cell line SK-OV-3, the ratio of phosphorylated Akt to the total amount of Akt was calculated and normalized to the untreated control.
b) The treatment of the ovarian cancer cell line SK-OV-3 with recombinant GDF-15 led to the phosphorylation of AKT. AKT is a molecule, which is part of the PI3K-pathway and contributes to the activation and proliferation of cells. In this experiment SK-OV-3 cells were treated with 10 ng/ml recombinant GDF-15 for 10 min at 37° C., 5% CO2. 5 minutes preincubation of 2 μg mAb-B1-23 with 10 ng/ml GDF-15 at 37° C. blocked the GDF-15 mediated AKT-phosphorylation (FIG. 2).

cancer cells = assay: Cytotoxic effects of the antibody (different assays); format: cell-based
Excerpt: The strongest antiproliferative effect was observed using the prostate cancer cell line LnCap, which produces lots of GDF-15.

recombinant human GDF-15 = target: T2, recombinant human GDF-15 (Homo sapiens, UniProt Q99988); assay: Mass spectrometric epitope excision; format: binding; settings: trypsin 2 h at 37° C., MS/MS identification
T2 sequence (Q99988 with tags, fused parts or gaps): T1 sequence (Q99988 195-308) with A1G, R2S
Procedure: The epitope of recombinant human GDF-15 which binds to the antibody B1-23 was identified by means of the epitope excision method and epitope extraction method (Suckau et al. Proc Nati Acad Sci USA. 1990 December; 87(24): 9848-9852; R. Stefanescu et al., Eur. J. Mass Spectrom. 13, 69-75 (2007)).
For preparation of the antibody column, the antibody B1-23 was added to NHS-activated 6-aminohexanoic acid coupled sepharose. The sepharose-coupled antibody B1-23 was then loaded into a 0.8 ml microcolumn and washed with blocking and washing buffers.
The immobilized antibody B1-23 on the affinity column was then incubated with recombinant GDF-15 for 2 h. The formed immune complex on the affinity column was then incubated with trypsin for 2 h at 37° C. […] The immobilized antibody itself is proteolytically stable. The resulting peptides of the digested GDF-15 protein, which were shielded by the antibody and thus protected from proteolytic cleavage, were eluted under acidic conditions (TFA, pH2), collected and identified by mass spectrometry.

[4] = Gel electrophoresis and coomassie staining of antibodies used in study No. 140123; format: physicochemical
Procedure: FIG. 6: Coomassie stain of antibodies used in the study No. 140123.
The quality of the humanized anti-GDF-15 antibody B1-23-H1L5 used in the study was tested by using gel electrophoresis and coomassie staining of the antibodies (see FIG. 6).

human Interleukin-5, sequence (P05113 20-134): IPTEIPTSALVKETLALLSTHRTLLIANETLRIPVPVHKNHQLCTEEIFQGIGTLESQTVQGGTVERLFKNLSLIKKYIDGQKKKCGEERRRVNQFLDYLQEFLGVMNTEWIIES

B1: mAb-B1-23: murine IgG2a (kappa) monoclonal anti-human GDF-15 antibody produced by hybridoma cell line B1-23, DSM ACC3142 (antibody, V domains shown)
VH: QVKLQQSGPGILQSSQTLSLTCSFSGFSLSTSGMGVSWIRQPSGKGLEWLAHIYWDDDKRYNPTLKSRLTISKDPSRNQVFLKITSVDTADTATYYCARSSYGAMDYWGQGTSVTVSS
VL: DIVLTQSPKFMSTSVGDRVSVTCKASQNVGTNVAWFLQKPGQSPKALIYSASYRYSGVPDRFTGSGSGTDFTLTISNVQSEDLAEYFCQQYNNFPYTFGGGTKLEIKRTVA
- deviation of rate constants, GDF-15 from insect cells vs E. coli [1]: about 45%
- binding to human interleukin-5 (human Interleukin-5): no binding
- GDF-15 mediated downregulation of NKG2D [2]: prevented
- GDF-15 mediated AKT-phosphorylation [3]: blocked
- cytotoxic effects of the antibody (cancer cells): excluded
- positions of GDF-15 peptides forming the immune complex (epitope) (recombinant human GDF-15): 40-55 ([…]) and 94-114 ([…])
- band appearance / aggregation in coomassie gel [4]: less sharp and at a higher molecular weight
